Laboratory results: FireProtDB (doi:10.1006/jmbi.1995.0599)

B1: Lysozyme C, P61626 (parent)
chain: MKALIVLGLVLLSVTVQGKVFERCELARTLKRLGMDGYRGISLANWMCLAKWESGYNTRATNYNAGDRSTDYGIFQINSRYWCNDGKTPGAVNACHLSCSALLQDNIADAVACAKRVVRDPQGIRAWVAWRNRCQNRDVRQYVQGCGV

Variants of: B1
Conditions: Homo sapiens, pH 2.7, Thermal, DSC, glycine 0.05 M, reversible: yes, structure 1LZ1, whole UniProt chain shown

For MKALIVLGLVLLSVTVQGKVFERCELARTLKRLGMDGYRGVSLANWMCLAKWESGYNTRATNYNAGDRSTDYGIFQINSRYWCNDGKTPGAVNACHLSCSALLQDNIADAVACAKRVVRDPQGIRAWVAWRNRCQNRDVRQYVQGCGV [I41V], the “ddG of mutation (higher = less stable)” value (64.9 °C) was 1.51 kJ/mol, the “heat capacity change of unfolding” value (64.9 °C) was 1.39 kcal/mol/K and the Tm was 63.8 °C. For the same variant, the “change of melting temperature, mutant - wild type (higher = more stable)” value (shortened to “change of melting temperature, mutant”) was -1.1 °C, the “heat capacity change of unfolding” value was 1.39 kcal/mol/K and the “unfolding enthalpy (calorimetric)” value was 469 kJ/mol. For the same variant, the “unfolding enthalpy (van 't Hoff)” value was 503 kJ/mol.

In the case of MKALIVLGLVLLSVTVQGKVFERCELARTLKRLGMDGYRGISLANWMCLAKWESGYNTRATNYNAGDRSTDYGIFQINSRYWCNDGKTPGAVNACHLSCSALLQDNIADAVACAKRVVRDPQGVRAWVAWRNRCQNRDVRQYVQGCGV [I124V], the “ddG of mutation (higher = less stable)” value (64.9 °C) is reported as 3.01 kJ/mol, the “heat capacity change of unfolding” value (64.9 °C) is reported as 1.41 kcal/mol/K and the Tm is reported as 62.7 °C. The “change of melting temperature, mutant” value was -2.2 °C, the “heat capacity change of unfolding” value was 1.41 kcal/mol/K and the “unfolding enthalpy (calorimetric)” value was 457 kJ/mol. The “unfolding enthalpy (van 't Hoff)” value was 476 kJ/mol.

For MKALIVLGLVLLSVTVQGKVFERCELARTLKRLGMDGYRGISLANWMCLAKWESGYNTRATNYNAGDRSTDYGVFQINSRYWCNDGKTPGAVNACHLSCSALLQDNIADAVACAKRVVRDPQGIRAWVAWRNRCQNRDVRQYVQGCGV [I74V], the “ddG of mutation (higher = less stable)” value (64.9 °C) was 5.02 kJ/mol, the “heat capacity change of unfolding” value (64.9 °C) was 1.34 kcal/mol/K and the Tm was 61.3 °C. For the same variant, the “change of melting temperature, mutant” value was -3.6 °C, the “heat capacity change of unfolding” value was 1.34 kcal/mol/K and the “unfolding enthalpy (calorimetric)” value was 475 kJ/mol. For the same variant, the “unfolding enthalpy (van 't Hoff)” value was 490 kJ/mol.

With MKALIVLGLVLLSVTVQGKVFERCELARTLKRLGMDGYRGISLANWMCLAKWESGYNTRATNYNAGDRSTDYGIFQVNSRYWCNDGKTPGAVNACHLSCSALLQDNIADAVACAKRVVRDPQGIRAWVAWRNRCQNRDVRQYVQGCGV [I77V] the Tm was 61.5 °C, the “change of melting temperature, mutant” value was -3.4 °C and the “heat capacity change of unfolding” value was 1.2 kcal/mol/K. The “unfolding enthalpy (calorimetric)” value was 461 kJ/mol and the “unfolding enthalpy (van 't Hoff)” value was 491 kJ/mol.

For MKALIVLGLVLLSVTVQGKVFERCELARTLKRLGMDGYRGISLANWMCLAKWESGYNTRATNYNAGDRSTDYGIFQINSRYWCNDGKTPGAVNACHLSCSALLQDNVADAVACAKRVVRDPQGIRAWVAWRNRCQNRDVRQYVQGCGV [I107V], the “ddG of mutation (higher = less stable)” value (64.9 °C) was 2.01 kJ/mol, the “heat capacity change of unfolding” value (64.9 °C) was 1.91 kcal/mol/K and the Tm was 63.5 °C. For the same variant, the “change of melting temperature, mutant” value was -1.4 °C, the “heat capacity change of unfolding” value was 1.91 kcal/mol/K and the “unfolding enthalpy (calorimetric)” value was 485 kJ/mol. The “unfolding enthalpy (van 't Hoff)” value was 510 kJ/mol.
